For the experiment, the target named is T1, katanin p80 C-terminal domain (p80-CTD, aa 481-658 of mouse p80), 6xHis-tagged (mouse, UniProt Q8BG40 481-658).
T1 construct: katanin p80 subunit, mouse, C-terminal domain, residues 481-658; also called 6xHis-p80CTD; source: E. coli BL21(DE3), pET28a, co-expressed with p60-MIT, purified (IMAC, SEC); not shown: 6xHis, N-terminal, kept
Description: AUC; sedimentation velocity of the co-purified p60-MIT:p80-CTD complex, 300 nM to 50 μM, 20 °C, 42,000 rpm, 20 mM HEPES pH 7.4, 150 mM NaCl, 2 mM 2-mercaptoethanol; apparent Kd estimated. The following applies: both partners purified.

This is an account of results in PMC5668312, “Structural basis of katanin p60:p80 complex formation” (Scientific Reports, 2017).

T1 sequence (Q8BG40 481-658): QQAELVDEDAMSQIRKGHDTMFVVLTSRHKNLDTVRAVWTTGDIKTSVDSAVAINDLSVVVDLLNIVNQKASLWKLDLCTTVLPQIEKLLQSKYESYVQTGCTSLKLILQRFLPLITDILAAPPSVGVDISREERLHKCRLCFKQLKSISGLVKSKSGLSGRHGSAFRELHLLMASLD

B1: katanin p60 MIT domain (p60-MIT, aa 1-78 of mouse p60), wild type (domain or fragment, UniProt Q9WV86 1-78, looked up)
chain: MSLQMIVENVKLAREYALLGNYDSAMVYYQGVLDQMNKYLYSVKDTHLRQKWQQVWQEINVEAKQVKDIMKTLESFKL
notes: katanin p60 subunit, mouse, N-terminal MIT domain, residues 1-78; Co-purified with m2 as the p60-MIT:6xHis-p80CTD complex; source: E. coli BL21(DE3), pET28a, co-expressed with 6xHis-p80-CTD, purified (IMAC, SEC)
For the molecule B1, the stoichiometry N (in general, a count of units in the complex or per binding partner) is 1.
